Data taken from publication doi:10.1101/2020.08.31.276014 (bioRxiv, 2020).

Biological target: the molecule itself
Test: SDS-PAGE of unboiled samples

B1: unencapsulated (naked) DypB (Rv0799c) purified from E. coli (enzyme)
chain: MAVPAVSPQPILAPLTPAAIFLVATIGADGEATVHDALSKISGLVRAIGFRDPTKHLSVVVSIGSDAWDRLFAGPRPTELHPFVELTGPRHTAPATPGDLLFHIRAETMDVCFELAGRILKSMGDAVTVVDEVHGFRFFDNRDLLGFVDGTENPSGPIAIKATTIGDEDRNFAGSCYVHVQKYVHDMASWESLSVTEQERVIGRTKLDDIELDDNAKPANSHVALNVITDDDGTERKIVRHNMPFGEVGKGEYGTYFIGYSRTPTVTEQMLRNMFLGDPAGNTDRVLDFSTAVTGGLFFSPTIDFLDHPPPLPQAATPTLAAGSLSIGSLKGSPR
stoichiometry N: 4
